One series addresses T1, DDK/Myc tag peptide.
T1 chain: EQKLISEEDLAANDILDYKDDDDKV
The series is described as follows: EMSA.

The target in series [1] is EPRS purified recombinant (UniProt P07814 1-1512). As to the kind of experiment: EMSA. (A gel shift assay detects complexes by their altered migration in electrophoresis.)
Sequence of EPRS purified recombinant (P07814 whole entry): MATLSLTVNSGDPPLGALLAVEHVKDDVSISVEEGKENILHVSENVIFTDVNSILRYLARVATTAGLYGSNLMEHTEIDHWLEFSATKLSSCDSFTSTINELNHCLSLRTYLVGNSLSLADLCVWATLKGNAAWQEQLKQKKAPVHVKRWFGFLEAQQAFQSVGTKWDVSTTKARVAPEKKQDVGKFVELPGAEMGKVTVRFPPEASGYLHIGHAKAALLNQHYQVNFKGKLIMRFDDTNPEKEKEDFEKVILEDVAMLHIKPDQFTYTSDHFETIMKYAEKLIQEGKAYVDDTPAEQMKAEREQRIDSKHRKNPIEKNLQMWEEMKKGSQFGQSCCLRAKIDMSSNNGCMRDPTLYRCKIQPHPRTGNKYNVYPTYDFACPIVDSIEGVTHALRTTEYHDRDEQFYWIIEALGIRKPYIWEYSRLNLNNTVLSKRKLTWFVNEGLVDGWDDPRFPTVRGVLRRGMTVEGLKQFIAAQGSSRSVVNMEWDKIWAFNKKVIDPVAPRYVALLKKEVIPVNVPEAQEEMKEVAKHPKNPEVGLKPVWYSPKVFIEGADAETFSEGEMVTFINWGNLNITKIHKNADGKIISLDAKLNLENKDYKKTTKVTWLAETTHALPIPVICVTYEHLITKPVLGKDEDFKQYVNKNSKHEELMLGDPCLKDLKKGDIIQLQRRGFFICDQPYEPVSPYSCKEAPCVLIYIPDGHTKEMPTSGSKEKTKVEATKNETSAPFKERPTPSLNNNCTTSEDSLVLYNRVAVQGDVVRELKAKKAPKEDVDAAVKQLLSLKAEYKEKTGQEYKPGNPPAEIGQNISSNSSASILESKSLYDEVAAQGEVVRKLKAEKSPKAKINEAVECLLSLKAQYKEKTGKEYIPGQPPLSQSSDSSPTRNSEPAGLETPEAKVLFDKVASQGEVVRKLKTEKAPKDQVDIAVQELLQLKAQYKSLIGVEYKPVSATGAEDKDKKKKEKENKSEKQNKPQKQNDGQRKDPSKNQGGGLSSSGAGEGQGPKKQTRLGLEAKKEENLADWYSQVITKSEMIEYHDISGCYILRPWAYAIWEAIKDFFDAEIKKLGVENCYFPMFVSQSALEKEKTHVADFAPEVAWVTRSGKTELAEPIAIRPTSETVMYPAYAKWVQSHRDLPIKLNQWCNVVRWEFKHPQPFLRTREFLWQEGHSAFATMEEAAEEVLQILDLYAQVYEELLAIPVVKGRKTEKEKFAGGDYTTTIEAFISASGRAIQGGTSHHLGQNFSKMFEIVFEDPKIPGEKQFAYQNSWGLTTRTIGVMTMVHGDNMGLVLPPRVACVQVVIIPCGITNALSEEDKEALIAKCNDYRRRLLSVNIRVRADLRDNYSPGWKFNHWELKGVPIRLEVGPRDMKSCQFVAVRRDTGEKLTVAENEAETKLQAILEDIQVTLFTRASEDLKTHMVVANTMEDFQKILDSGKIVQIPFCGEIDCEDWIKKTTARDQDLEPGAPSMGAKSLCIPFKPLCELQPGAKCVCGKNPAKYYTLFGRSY

With AAUCUUAAAACUGUCAAUGACUUUAAUAUCUU (structured_RNA) [F2.2L (TGEV GAIT-like RNA motif)], the values for the binding result (with DDK/Myc tag peptide; in series [1]) were “no binding” and “binds”, respectively.

The record behind these values is paper PMC4453530.
